Source: patent US6017743A, “Siaα 2,3, Galβ 1, 4Glc NAcα 2,8-sialyltransferase” (The Institute of Physical and Chemical Research, priority 1995, dated 2000)

Tests used:
[1] = biological target: T1, mouse Siaα 2,3Galβ 1,4GlcNAc α 2,8-sialyltransferase O3 (ST8Sia III), protein A-fused soluble enzyme, SEQ. ID. No.3 (active domain of SEQ. ID. No.1) (Mus musculus, UniProt Q64689); assay: Kinetic properties of the sialyltransferase of the present invention (sialyltransfer from CMP-[14C]NeuAc to glycolipid acceptors, HPTLC/radio image analysis); format: biochemical; conditions: acceptor substrate, Table 2
T1 construct: ID; No.3 and 4, respectively; IgM signal peptide (N); made in house; host or cells: COS-7 cells (transient transfection with pcDSA-O3; secreted into the medium, adsorbed to IgG-Sepharose)
T1 sequence (Q64689 42-380): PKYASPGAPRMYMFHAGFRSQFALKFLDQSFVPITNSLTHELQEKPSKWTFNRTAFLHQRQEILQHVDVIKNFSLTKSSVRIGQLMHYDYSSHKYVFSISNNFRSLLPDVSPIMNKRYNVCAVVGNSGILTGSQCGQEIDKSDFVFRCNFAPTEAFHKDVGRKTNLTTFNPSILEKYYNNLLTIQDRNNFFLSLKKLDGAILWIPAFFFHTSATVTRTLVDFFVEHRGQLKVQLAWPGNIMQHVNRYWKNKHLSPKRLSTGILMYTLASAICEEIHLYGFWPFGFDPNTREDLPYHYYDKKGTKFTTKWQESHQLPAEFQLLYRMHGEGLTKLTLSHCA
Text: To facilitate functional analysis of the sialyltransferase of the present invention, expression plasmid pcDSA-O3 was constructed and transfected into COS-7 cells, and the protein A fused-protein containing an active domein of the sialyltransferase of the present invention (i.e. a soluble enzyme; hereinafter referred to as the fused protein of the present invention) was adsorbed to IgG-Sepharose in the medium and used as the enzyme source. The amino acid sequence of the fused protein and the gene encoding the fused protein are shown as SEQ. ID. No.3 and 4, respectively.
A truncated form of the sialyltransferase of the present invention (ST8Sia-III), lacking the first 39 amino acids of the open reading frame, was prepared by PCR amplification with 5'- and 3'-primers containing a XhoI site, respectively (5'-CATCTTCTCGAGTCCC AAGTACGCCAGCCCG-3' and 5'-[…]-3'). […]
The single insertion in the correct orientation was finally analyzed by restriction enzyme treatment and DNA sequencing. […]
For glycolipid acceptors, the incubation mixtures were applied on a C-18 column (Sep-Pak Vac, 100 mg; Waters, Milford, Mass., U.S.A.) which was washed with water. […] The radioactive materials in glycoproteins or glycolipids were visualized with a BAS2000 radio image analyzer (Fuji Film, Japan), and the radioactivity incorporated into acceptor glycoproteins was counted.

[2] = biological target: asialo-α1-acid glycoprotein
[3] = biological target: transferrin (bovine) (bovine) (UniProt Q29443)
fetuin [4] = biological target: fetuin
[5] = biological target: bovine submaxillary mucin (bovine)
fetuin [6] = biological target: fetuin; remark: listed apart in the source

Km ([1]; 0.1 M sodium cacodylate pH 6.0, 37° C., CMP-[14C]NeuAc donor) [µM] | Vmax [1] | sialyltransferase activity toward the acceptor (pmol/ml medium, h) (pmol/ml medium, h) [2] | sialyltransferase activity toward the acceptor (pmol/ml medium, h) (pmol/ml medium, h) (ovomucoid) | sialyltransferase activity toward the acceptor (pmol/ml medium, h) (pmol/ml medium, h) (asialofetuin) | sialyltransferase activity toward the acceptor (pmol/ml medium, h) (pmol/ml medium, h) [3] | sialyltransferase activity toward the acceptor (pmol/ml medium, h) (pmol/ml medium, h) (fetuin [4]) | sialyltransferase activity toward the acceptor (pmol/ml medium, h) (pmol/ml medium, h) [5] | sialyltransferase activity toward the acceptor (pmol/ml medium, h) (pmol/ml medium, h) (α1-acid glycoprotein) | Km (fetuin [6]) [µM] | Substance
82 | 9.2 pmol/h,ml |  |  |  |  |  |  |  |  | Siaα 2,3Galβ 1,4GlcNAc β 1,4Galβ 1,4Glcβ1,1Cer [2,3-SPG]
 |  | < 0.01 | < 0.01 | < 0.01 | < 0.01 | < 0.01 | < 0.01 | < 0.01 |  | human ST8Sia I (GD3 synthase) expressed by Namalwa cells (from UniProt Q92185) (enzyme)
 |  | < 0.1 | 1.3 | < 0.1 | 0.38 | 8 | < 0.1 | 7.6 |  | mouse ST8Sia II (STX) (from UniProt O35696) (enzyme)
 |  | < 0.1 | 1.7 | < 0.1 | 1.3 | 92.1 | < 0.1 | 7.8 | 20 | protein A-fused soluble enzyme containing an active domain of Siaα2,3Galβ1,4GlcNAc α2,8-sialyltransferase O3 (mouse ST8Sia-III)
